“Also recorded” adds a separate entry of the source.
Test system: mevalonate biosynthetic pathway
Assay: Mevalonate production with synthetic scaffolds in E. coli
Assay type: cell-based, Escherichia coli
Procedure: The scalability of the co-recruitment strategy was tested by building separate scaffold devices capable of co-localizing multiple enzymes. Scaffolds provide a means for physically separating the binding elements for design control from the catalytic activities. Thus, the only modification to the enzyme necessary for gaining modular control over complex formation is the addition of a single interaction ligand to each enzyme. A peptide ligand specific for a corresponding protein-protein interaction domain was recombined to the C-terminus of each enzyme of the mevalonate biosynthetic pathway (FIG. 3a). Scaffolds were built by tethering together, via flexible nine amino acid glycine-serine linkers, different numbers of three protein-protein interaction domains from metazoan genomes: the GTPase Binding Domain (GBD) from the actin polymerization switch N-WASP, the SH3 domain, and the PSD95/DlgA/Zo-1 (PDZ) domain from the adaptor protein syntrophin (see Table 1, below).
By varying the number of repeats of these interaction domains, the ratio of individual pathway enzymes co-localized to the resultant complex could be controlled. Scaffolds were built with a single GBD domain for recruiting AtoB and varying numbers of SH3 and PDZ domains for recruiting HMGS and HMGR, respectively. A matrix of scaffolds was made with the architecture (N-terminal to C-terminal) of GBDxSH3yPDZz where x=1 and y and z were varied to be 1, 2, or 4. For separate inducible control, the pathway enzymes were placed under transcriptional control of the tetracycline-inducible promoter (Ptet), and the scaffolds were under transcriptional control of the arabinose-inducible promoter (PBAD). In an effort to lower the metabolic load imposed on the production host, mevalonate production experiments were conducted with low expression levels of the mevalonate pathway enzymes (7 nM aTc) and a high scaffold expression level (250 μM arabinose) to improve pathway efficiency.

B1: G1S2P2: optimized scaffold polypeptide with 1, 2, and 2 repeats of GBD, SH3, and PDZ domains (SEQ ID NO:37) (protein)
chain: MTKADIGTPSNFQHIGHVGWDPNTGFDLNNLDPELKNLFDMCGISEAQLKDRETSKVIYDFIEKTGGVEAVKNELRRQAPGSGSGSGGSMAEYVRALFDFNGNDEEDLPFKKGDILRIRDKPEEQWWNAEDSEGKRGMIPVPYVEKYGSGSGSGGSMAEYVRALFDFNGNDEEDLPFKKGDILRIRDKPEEQWWNAEDSEGKRGMIPVPYVEKYGSGSGSGGSMLQRRRVTVRKADAGGLGISIKGGRENKMPILISKIFKGLAADQTEALFVGDAILSVNGEDLSSATHDEAVQALKKTGKEVVLEVKYMKEVSPYFKGSGSGSGGSMLQRRRVTVRKADAGGLGISIKGGRENKMPILISKIFKGLAADQTEALFVGDAILSVNGEDLSSATHDEAVQALKKTGKEVVLEVKYMKEVSPYFKGS
- change in mevalonate production with increasing concentrations of glycerol (glycerol as carbon source, increases saturated at approximately 4% glycerol): improved dramatically; also recorded: significant increases
- fold increase in mevalonate production compared to the unscaffolded pathway (G0S0P0) (low pathway enzyme expression (7 nM aTc), high scaffold expression (250 μM arabinose), 4% glycerol): 77 fold
- fold more mevalonate than G0S0P0-GFP (pathway under pTET, scaffold under pBAD, control expresses GFP instead of scaffold): 77 fold

— US9856460B2, “Nucleic acids encoding synthetic scaffolds and host cells genetically modified with the nucleic acids” (The Regents of the University of California, priority 2008, dated 2018)
